Data reported in US20230250185A1 (ARCELLX, published 2023).
Residue numbers refer to the chain shown, from its start. In names and notes the source's numbering stands. Where two headings read alike, the source gives them in different places.

T1: CD123-Fc (Sino Biological) (human, UniProt P26951 19-305)
T1 construct: Bought reagent; not shown: Fc part of the bought fusion (detected with anti-human Fc HRP)
T1 sequence: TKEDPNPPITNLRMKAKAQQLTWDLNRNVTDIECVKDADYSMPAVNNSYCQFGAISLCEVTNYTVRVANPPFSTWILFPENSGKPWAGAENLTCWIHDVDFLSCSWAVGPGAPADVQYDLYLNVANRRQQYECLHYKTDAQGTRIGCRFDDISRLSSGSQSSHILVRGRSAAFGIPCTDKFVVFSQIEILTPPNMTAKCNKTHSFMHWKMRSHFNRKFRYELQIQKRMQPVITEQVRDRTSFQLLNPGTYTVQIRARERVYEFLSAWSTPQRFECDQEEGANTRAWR

B1: 5S5W D domain as MBP fusion (designed binder)
chain: MGSWSEFNMRLDAIYERLTALGGSEAELAAFEKEIAAFESELQAYKGKGNPEVEWLRHSAARIRLELQAYRHN
notes: not shown: limits, linker and position relative to the D dom
B2: 5B7L D domain as MBP fusion (designed binder)
chain: B1 chain with S5I, T19V, H58K, S59V, R62N
notes: as for B1
B3: 8W9C D domain as MBP fusion (designed binder)
chain: MGSWDEFGRRLYAIEWRLYALGGSEAELAAFEKEIAAFESELQAYKGKGNPEVEKLREIAAVIRSNLQAYRHN
notes: Expressed in E. coli and assayed from leak-out supernatant; also called wild-type (8W9C); parental 8W9C; not shown: limits, linker and position relative to the D dom
B4: Adapter protein comprising the 1F9I D domain and P26(Q26-V229) AFP polypeptide (designed binder)
chain: B3 chain with R17Q, L21Q, S24T, I59L, S65E
B5: Adapter protein comprising the 8W9C D domain and P26(Q26-V229) AFP polypeptide (designed binder)
chain: B3 chain
B6: 4H2H D domain as MBP fusion (designed binder, not shown: large carriers; small tags and cut ends)
chain: B3 chain with K48I, K55N
notes: also called 8W9C (K48I, K55N)
B7: 6Z5E D domain as MBP fusion (designed binder, not shown: large carriers; small tags and cut ends)
chain: B3 chain with N50S
notes: also called 8W9C (N50S)
B8: 1J1K D domain as MBP fusion (designed binder, not shown: large carriers; small tags and cut ends)
chain: B3 chain with G8S
notes: also called 8W9C (G8S)

Experiments:
[1] = biological target: T1, CD123-Fc (Sino Biological); test: ELISA, serial dilution of MBP fusion normalized for protein concentration; readout CD123-Fc Binding (A450)
[2] = biological target: T1, CD123-Fc (Sino Biological); test: as above; remark: listed apart in the source
[3] = biological target: T1, CD123-Fc (Sino Biological); test: BLI (Octet RED386): CD123-Fc captured on AHC sensor, Adapter in solution 500-0.69 nM, 25 C, global 1:1 fit

Binder | EC50 [1] [ng/mL] | EC50 [2] [ng/mL] | Kd [3] [nM] | koff [3] [s⁻¹] | kon [3] [M⁻¹ s⁻¹]
B1 | 68.7 | 57.9 | – | – | –
B2 | 5.12 | 3.72 | – | – | –
B3 | 7.47 | 6.97 | – | – | –
B4 | – | – | 7.6 | 0.000646 | 85200
B5 | – | – | 5.2 | 0.000924 | 177000
B6 | – | 5.4 | – | – | –
B7 | – | 3.26 | – | – | –
B8 | 3.69 | – | – | – | –
